In PMC9486129, “An evolutionary divergent thermodynamic brake in ZAP-70 fine-tunes the kinetic proofreading in T cells” (The Journal of Biological Chemistry, 2022):
Where no end group is shown, it is not given here. [ ]: non-standard residue; d: D form. pY = N[C@@H](Cc1ccc(OP(=O)(O)O)cc1)C(=O)O

Target: T1, ZAP-70 tandem SH2 domain R192A (1-256)
T1 construct: numbers count on: PDB 2OQ1 (holo-tSH2 structure); also called tSH2 R192A; C-SH2 domain mutant; source: E. coli BL21(DE3), purified (Ni-NTA, Q column, gel filtration)
Assay: ITC; Malvern PEAQ-ITC, 20 °C; C-SH2 mutant tSH2 (R192A, printed R190A in the methods) in 20 mM Hepes pH 8.2, 150 mM NaCl, 5 mM β-mercaptoethanol; titrated with 300 μM peptide; one-site binding model; constant printed under the column Kd2
Conditions: both partners purified

Kd: 12 ± 0.9 µM
Binder: DGL[pY]QGLSTATKDT[pY]DALH [doubly-phosphorylated ITAM-ζ3 peptide]
